This is an account of results in the Human Domainome abundance scans (Beltran et al. 2025).

B1: Proto-oncogene vav, residues 782 to 842; numbered along this chain, P15498 (parent)
chain: KYFGTAKARYDFCARDRSELSLKEGDIIKILNKKGQQGWWRGEIYGRVGWFPANYVEEDYS

± gives the uncertainty stated by the source.

Variants of B1 are the subject of this series. Kind of series: abundance fitness (aPCA) (normalised: wild type 0, dead -1); higher = more abundant; growth selection in yeast, the domain comes from the species named. The conditions noted are these: Homo sapiens.
G46N: the abundance fitness was -0.15 ± 0.098.

On to G46P, for which the abundance fitness was -0.387 ± 0.061.

G46R: the abundance fitness is -0.671 ± 0.061.

As for I28L, the abundance fitness was -0.412 ± 0.11.

For I28A, the abundance fitness is -0.662 ± 0.17.

I28R: the abundance fitness is -1.11 ± 0.28.

Regarding K29N, the abundance fitness is -0.033 ± 0.1.

Regarding K29Y, the abundance fitness was -0.217 ± 0.18.

With G4D, the abundance fitness is -0.083 ± 0.075.

R15D: the abundance fitness is -0.466 ± 0.32.

In the case of R15Y, the abundance fitness is -0.414 ± 0.14.

In the case of R15C, the abundance fitness was -0.444 ± 0.15.

On to E57S, for which the abundance fitness is -0.059 ± 0.074.

Regarding E57H, the abundance fitness was -0.424 ± 0.17.

Consider I27G, for which the abundance fitness was -0.704 ± 0.093.

Take P52K: the abundance fitness was -0.498 ± 0.21.

Regarding P52Q, the abundance fitness is -0.528 ± 0.13.

As to V56Y, the abundance fitness was -0.325 ± 0.32.

As to A14K, the abundance fitness was -0.692 ± 0.18.

For A14P, the abundance fitness is -0.355 ± 0.12.

On to A14Y, for which the abundance fitness was -0.328 ± 0.16.

As for A14F, the abundance fitness is -0.804 ± 0.24.

With L31H, the abundance fitness was -0.285 ± 0.16.

L31S: the abundance fitness is -0.618 ± 0.11.

Regarding L31I, the abundance fitness was -0.004 ± 0.1.

With E24P, the abundance fitness was -0.111 ± 0.096.

With E24C, the abundance fitness is -0.091 ± 0.051.

In the case of E24N, the abundance fitness is -0.118 ± 0.082.

For the variant E24D, the abundance fitness is -0.361 ± 0.076.

With G25M, the abundance fitness was -0.742 ± 0.12.

For G25W, the abundance fitness was -0.498 ± 0.1.

As for G25C, the abundance fitness was -0.895 ± 0.28.

Consider G38D, for which the abundance fitness is -0.265 ± 0.11.

On to W39A, for which the abundance fitness was -0.614 ± 0.15.

Consider W39Q, for which the abundance fitness was -0.317 ± 0.079.

In the case of A53Y, the abundance fitness is -0.341 ± 0.19.

For the variant A53W, the abundance fitness was -0.451 ± 0.079.

With A53P, the abundance fitness was -0.226 ± 0.096.

Turning to C13I, the abundance fitness was -0.108 ± 0.13.

Regarding C13K, the abundance fitness was -0.201 ± 0.11.

Consider C13E, for which the abundance fitness is 0.12 ± 0.086.

For the variant D26P, the abundance fitness was -1.15 ± 0.41.

On to D26A, for which the abundance fitness was -0.493 ± 0.1.

Regarding D26W, the abundance fitness is -0.8 ± 0.21.

As to D26T, the abundance fitness was -0.777 ± 0.21.

For the variant D26M, the abundance fitness was -0.401 ± 0.14.

For the variant Y2T, the abundance fitness is -0.138 ± 0.093.

On to N54M, for which the abundance fitness is -0.214 ± 0.097.

Take N54Q: the abundance fitness was -0.201 ± 0.12.

In the case of N54S, the abundance fitness is -0.054 ± 0.053.

Regarding N54V, the abundance fitness is -0.098 ± 0.054.

For the variant N54H, the abundance fitness is -0.185 ± 0.15.

For I44N, the abundance fitness was 0.085 ± 0.17.

For the variant I44M, the abundance fitness was -0.292 ± 0.1.

On to I44P, for which the abundance fitness was -0.556 ± 0.14.

With I44A, the abundance fitness was 0.062 ± 0.069.

With K34E, the abundance fitness came to 0.068 ± 0.1.

With K34Y, the abundance fitness is -0.216 ± 0.16.

Take K34M: the abundance fitness was -0.22 ± 0.1.

In the case of K7M, the abundance fitness amounted to 0.006 ± 0.11.

On to K7S, for which the abundance fitness was -0.381 ± 0.089.

In the case of T5H, the abundance fitness was -0.094 ± 0.12.

In the case of L20F, the abundance fitness is -0.937 ± 0.31.

For the variant W50Y, the abundance fitness is -0.17 ± 0.11.

As for W50S, the abundance fitness is -0.584 ± 0.11.

For R47Y, the abundance fitness is -0.503 ± 0.089.

For E19R, the abundance fitness was -1.08 ± 0.32.

Consider Q37A, for which the abundance fitness is -0.044 ± 0.075.

For Q37V, the abundance fitness was -0.024 ± 0.069.

For Q37T, the abundance fitness was -0.135 ± 0.11.

As for Q37L, the abundance fitness is -0.106 ± 0.056.

Consider Q37F, for which the abundance fitness was -0.186 ± 0.094.

E43F: the abundance fitness is -0.825 ± 0.47.

For the variant E43G, the abundance fitness was -0.702 ± 0.12.

E43H: the abundance fitness is -0.993 ± 0.42.

In the case of V48Y, the abundance fitness was -0.177 ± 0.12.

As for K33S, the abundance fitness was -0.576 ± 0.092.

On to K33E, for which the abundance fitness was -0.46 ± 0.15.

Take K33A: the abundance fitness is -0.711 ± 0.12.

In the case of N32G, the abundance fitness is -0.075 ± 0.07.

On to N32T, for which the abundance fitness is -0.131 ± 0.1.

As to Y60L, the abundance fitness was 0.062 ± 0.057.

As to Y60I, the abundance fitness was -0.024 ± 0.12.

Regarding G42F, the abundance fitness was -1.02 ± 0.4.

On to I30S, for which the abundance fitness is -0.662 ± 0.12.

In the case of I30R, the abundance fitness is -0.634 ± 0.093.

As to I30W, the abundance fitness is -0.871 ± 0.16.

On to I30Q, for which the abundance fitness was -0.833 ± 0.29.

With I30F, the abundance fitness was -0.776 ± 0.38.

For I30E, the abundance fitness is -0.876 ± 0.46.

On to S21L, for which the abundance fitness is -0.653 ± 0.1.

In the case of S21Y, the abundance fitness was -0.513 ± 0.22.

For the variant S21C, the abundance fitness is -0.445 ± 0.13.

S21H: the abundance fitness is -0.243 ± 0.15.

For S21Q, the abundance fitness was -0.594 ± 0.15.

For L22W, the abundance fitness was -0.888 ± 0.24.

Turning to L22M, the abundance fitness is -0.13 ± 0.1.

On to L22I, for which the abundance fitness came out at 0.016 ± 0.11.

In the case of Y55S, the abundance fitness was -0.206 ± 0.094.

As for Y55K, the abundance fitness was -0.388 ± 0.11.

For R41G, the abundance fitness is -0.691 ± 0.11.

For the variant R41S, the abundance fitness was -0.359 ± 0.084.

Turning to R41P, the abundance fitness was -0.588 ± 0.14.

Take R41E: the abundance fitness is 0.018 ± 0.085.

On to R41M, for which the abundance fitness worked out at 0.024 ± 0.078.

On to D16M, for which the abundance fitness is -0.499 ± 0.2.

Consider D16G, for which the abundance fitness is -0.11 ± 0.071.

As for D16Q, the abundance fitness is -0.108 ± 0.11.

Regarding D16L, the abundance fitness is -0.418 ± 0.072.

With S61V, the abundance fitness is -0.216 ± 0.15.

As to S61P, the abundance fitness turned out to be 0.232 ± 0.15.

In the case of S61R, the abundance fitness is -0.011 ± 0.15.

On to S61H, for which the abundance fitness was determined as 0.019 ± 0.3.

Turning to R17Y, the abundance fitness was determined as 0.107 ± 0.16.

As to R17D, the abundance fitness was -0.046 ± 0.12.

Regarding R17W, the abundance fitness was -0.223 ± 0.11.

With Q36P, the abundance fitness stood at 0.074 ± 0.092.

Consider Q36M, for which the abundance fitness is 0.055 ± 0.085.

With Q36I, the abundance fitness is -0.084 ± 0.11.

For the variant Q36T, the abundance fitness was -0.076 ± 0.088.

Q36G: the abundance fitness is -0.192 ± 0.066.

Take D11V: the abundance fitness was -0.587 ± 0.095.

Take D11L: the abundance fitness is -0.607 ± 0.074.

Consider D11T, for which the abundance fitness is -0.316 ± 0.1.

A6E: the abundance fitness was -0.904 ± 0.24.

As to A6V, the abundance fitness is -0.214 ± 0.054.

A6D: the abundance fitness is -0.679 ± 0.12.

As to A6Y, the abundance fitness was -0.264 ± 0.069.

For A6I, the abundance fitness is -0.852 ± 0.13.

With G49P, the abundance fitness was -0.776 ± 0.2.

As to G49Q, the abundance fitness was -0.838 ± 0.29.

G49L: the abundance fitness is -1.01 ± 0.29.

For G49S, the abundance fitness was -0.618 ± 0.14.

E58A: the abundance fitness was -0.186 ± 0.077.

Regarding E58D, the abundance fitness was -0.435 ± 0.2.

Regarding K1A, the abundance fitness is -0.456 ± 0.14.

On to K1S, for which the abundance fitness was -0.198 ± 0.13.

With K1E, the abundance fitness was -0.16 ± 0.12.

Regarding W40I, the abundance fitness is -0.385 ± 0.24.

Consider W40M, for which the abundance fitness is -0.428 ± 0.14.

On to W40D, for which the abundance fitness was -0.747 ± 0.23.

Consider F12C, for which the abundance fitness was -0.83 ± 0.37.

In the case of F12N, the abundance fitness is -0.671 ± 0.32.

Regarding F12P, the abundance fitness is -1.13 ± 0.38.

On to F51L, for which the abundance fitness is -0.813 ± 0.088.

As to G35I, the abundance fitness is -0.334 ± 0.15.

In the case of G35T, the abundance fitness is -0.16 ± 0.11.

For G35P, the abundance fitness was -0.23 ± 0.12.

With G35N, the abundance fitness is -0.327 ± 0.24.

Take D59A: the abundance fitness is -0.188 ± 0.082.

Consider D59L, for which the abundance fitness was -0.138 ± 0.06.

With D59Y, the abundance fitness is -0.244 ± 0.1.

D59G: the abundance fitness is -0.097 ± 0.088.

For the variant K23M, the abundance fitness is -0.207 ± 0.11.

K23L: the abundance fitness was -0.585 ± 0.097.

On to K23T, for which the abundance fitness was -0.237 ± 0.12.

On to K23N, for which the abundance fitness is -0.576 ± 0.2.

K23Y: the abundance fitness was -0.232 ± 0.24.

For Y45V, the abundance fitness was -0.074 ± 0.052.

Take Y45K: the abundance fitness was determined as 0.115 ± 0.065.

Regarding Y45G, the abundance fitness was 0.125 ± 0.044.

For S18P, the abundance fitness is -0.794 ± 0.23.

Take S18M: the abundance fitness was -0.271 ± 0.091.

Turning to S18V, the abundance fitness is -0.599 ± 0.11.

Turning to S18T, the abundance fitness was -0.068 ± 0.1.

For R9P, the abundance fitness was -0.972 ± 0.3.

As for R9H, the abundance fitness was -0.505 ± 0.22.
